Legend:
[1] = Experimental: In particular, phages selected in vitro to each receptor or binding site located in the GIT were amplified in E. coli, PEG-precipitated, resuspended in TBS and the titer of each phage sample was determined by plaquing in E. coli as described above. […] Using the in situ loop model described above, 0.5 ml of preselected phage library solution was injected into the tied-off portion of the duodenum/jejunum. Blood was collected into heparinized tubes from the portal vein at 0, 15, 30, 45 and 60 minutes. A blood sample was taken from the systemic circulation at the end of the experiment. Similarly, the portion of the duodenum/jejunum used for phage injection was taken at the end of the experiment.
Thirty microliters of the collected portal blood (neat and 10^−2, 10^−4, 10^−6 dilutions) was added to 30 μl E. coli K91Kan cells (overnight culture) and incubated at 37° C. for 10 min. Subsequently, 3 ml of top agarose was added and the samples were plated for plaques. One hundred microliters of the collected portal blood was added to 100 μl of E. coli K91Kan. Five milliliters of LB medium was then added and the samples were incubated at 37° C. overnight in a rotating microbial incubator. The E. coli was removed by centrifugation and the amplified phage supernatant samples were either titered directly or were PEG-precipitated, resuspended in TBS and titered. Following titration of the amplified phage, samples containing phage from each set of animals were combined, adjusting the titer of each sample to the same titer, and were plated for plaques on LB agar plates (22 cm^2 square plates). Either 12,000 or 24,000 phage were plated for plaques.
Thirty microliters of the collected systemic blood (neat and 10^−2, 10^−4, 10^−6 dilutions) was added to E. coli K91Kan cells, incubated at 37° C. for 10 min. Three ml of top agarose was then added and the samples were plated for plaques. One hundred microliters of the collected systemic blood was added to 100 μl of E. coli K91Kan, incubated at 37° C. for 10 min. Five milliliters of LB medium was then added and the samples were incubated at 37° C. overnight in a rotating microbial incubator. The E. coli was removed by centrifugation and the amplified phage supernatant samples were either titered directly or were PEG-precipitated, resuspended in TBS and titered. Following titration of the amplified phage, samples containing phage from each set of animals were combined, adjusting the titer of each sample to the same titer, and were plated for plaques on LB agar plates (22 cm^2 square plates). Either 12,000 or 24,000 phage were plated for plaques. The intestinal tissue portion used in each closed loop was excised. […] Alternatively, the tissue (in PBS supplemented with protease inhibitors) was homogenized in an Ultra Thorex homogenizer, washed 3 times in PBS containing protease inhibitors and resuspended in PBS containing protease inhibitors (Int-G samples). In each case, serial dilutions (neat and 10^−2, 10^−4, 10^−6 dilutions) of the tissue homogenate was titered in E. coli.
The phage amplified from the portal blood, systemic blood and intestinal tissue was plated for plaques. […] The filters were air-dried, and the DNA was cross-linked to the filter (UV crosslinking: 2 min, high setting). The filters were incubated in pre-hybridization buffer (6×SSC, 5×Denhardt's solution, 0.1% SDS, 20 μg/ml yeast tRNA) at 40° C.-45° C. for at least 60 min.
Synthetic oligonucleotides, (22-mers), complimentary to regions coding for the receptor or binding sites used to create the preselected phage library, were synthesized (see Table 14 below).
The oligonucleotides (5 pmol) were 5′ end labelled with ^32P-ATP and T4 polynucleotide kinase and approximately 2.5 pmol of labelled oligonucleotide was used in hybridization studies. […] The filters were air-dried and exposed for autoradiography for 15 hours, 24 hours or 72 hours.
Hybridization data for pools from each receptor group of rats was compiled.

[2] = target: BSA (Bos taurus, UniProt P02769); experiment: Phage ELISA on BSA (background control protein); type: binding; conditions: Table 4
Chain of BSA (P02769 25-607): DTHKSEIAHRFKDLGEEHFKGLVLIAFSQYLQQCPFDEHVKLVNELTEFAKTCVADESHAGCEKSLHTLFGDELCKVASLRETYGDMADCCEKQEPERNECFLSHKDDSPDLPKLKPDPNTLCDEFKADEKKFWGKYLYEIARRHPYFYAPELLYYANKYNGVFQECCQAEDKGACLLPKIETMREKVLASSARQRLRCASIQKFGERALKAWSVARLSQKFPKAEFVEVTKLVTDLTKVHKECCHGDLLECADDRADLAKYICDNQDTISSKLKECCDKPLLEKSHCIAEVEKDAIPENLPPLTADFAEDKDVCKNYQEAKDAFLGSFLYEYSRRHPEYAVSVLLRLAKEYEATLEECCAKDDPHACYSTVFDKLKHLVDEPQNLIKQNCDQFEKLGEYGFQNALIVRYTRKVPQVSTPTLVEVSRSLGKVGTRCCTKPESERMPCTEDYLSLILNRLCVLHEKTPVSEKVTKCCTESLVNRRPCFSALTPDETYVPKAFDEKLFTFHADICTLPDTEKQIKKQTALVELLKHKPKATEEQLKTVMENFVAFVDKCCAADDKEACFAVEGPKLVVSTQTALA
Experimental: 96 well plates were coated overnight with GIT receptor, BSA and, optionally, IDE (insulin degrading enzyme, an irrelevant His-fusion protein) or hTF. The plates were blocked for one hour with 0.5% BSA-PBS. After clarification, the amplified phage were diluted 1:100 in 1% BSA plus 0.05% Tween 20 in PBS and added to the plates. Following incubation of the plates on a rotator for 1 to 2 hours, the plates were washed 5 times with 1% BSA plus 0.05% Tween 20 in PBS. Dilute anti-M13-HRP conjugate (anti-M13 antibody linked to horse radish peroxidase (HRP)) was added to all the wells and the plate was incubated for one hour on a rotator. After the plates were washed 5 times, as described above, TMB substrate was added to the wells. The plates were read at 650 nm absorbance.

[3] = target: T1, hPEPT1 (Homo sapiens, UniProt P46059); experiment: Receptor ELISA of phage on hPEPT1; type: binding; conditions: Table 4; ratio
T1 construct: 391-571; made in house
T1 sequence (P46059 391-571): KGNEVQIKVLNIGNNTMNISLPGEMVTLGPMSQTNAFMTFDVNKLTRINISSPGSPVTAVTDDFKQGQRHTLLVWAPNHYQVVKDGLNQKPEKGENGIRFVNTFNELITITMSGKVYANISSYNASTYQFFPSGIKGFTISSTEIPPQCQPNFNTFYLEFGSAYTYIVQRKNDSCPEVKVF
Experimental: The plates were blocked for one hour with 0.5% BSA-PBS. After clarification, the amplified phage were diluted 1:100 in 1% BSA plus 0.05% Tween 20 in PBS and added to the plates. Following incubation of the plates on a rotator for 1 to 2 hours, the plates were washed 5 times with 1% BSA plus 0.05% Tween 20 in PBS. […] After the plates were washed 5 times, as described above, TMB substrate was added to the wells. The plates were read at 650 nm absorbance.

[4] = Drug potency, peptide loading and size of coacervated particles; type: physicochemical; conditions: formulation 1 particles (coacervation), blend

RGSTGTAGGERSGVLNLHTRDNASGSGFKPWYPSNRGHK [Peptide 5PAX5]
presence in the systemic circulation (in words) ([1]; text summary of HPT1 and hPEPT1 pools): found in the systemic circulation | transport from the GIT closed loop into the portal circulation (in words) ([1]; text summary of hSI, D2H, HPT1, hPEPT1 pools): not found in the portal blood | presence in the intestine samples or fractions (in words) ([1]; text summary of the four pools): not found in the intestine samples | BSA [2]: 0.036 OD | PEPT1/BSA [3]: 4 | Insulin (insulin potency) ([4]; coated with the named peptide): 52.7 mg/g | Peptide (level of peptide coated onto the particles) ([4]; measured by fluorescence): 2.83 µL/mg
